In US20210317178A1 (D AND D PHARMATECH, published 2021):
Positions of bridges follow the written chain, without caps; N, C: chain ends. Non-standard residues stand in square brackets, D forms with d. No end group written: not given here. tri‑branched mPEG‑MAL 50 kDa = tri-branched maleimide-activated monomethoxy PEG, 50 kDa; Aib = CC(C)(N)C(=O)O

B1: polypeptide of Example 1 (polypeptide into which cysteine was introduced, SEQ ID NO. 2) (peptide)
peptide: H[Aib]QGTFTSDYSKYLDEQAAKEFVQWLMNTC
modifications: lactam 16-20
B2: conjugate of Example 2 (polypeptide of SEQ ID NO. 2 bound to tri-branched mPEG-MAL, MW 50 kDa) (peptide)
peptide: H[Aib]QGTFTSDYSKYLDEQAAKEFVQWLMNTC(tri‑branched mPEG‑MAL 50 kDa)
modifications: lactam 16-20

Legend:
[1] = molecular target: human glucagon receptor (GCGR) (human, UniProt P47871 26-477); assay: cell-based or functional assay
human GLP-1 receptor = human GLP-1 receptor (human, UniProt P43220 24-463); assay: cell-based or functional assay

human glucagon receptor (GCGR), sequence (P47871 26-477): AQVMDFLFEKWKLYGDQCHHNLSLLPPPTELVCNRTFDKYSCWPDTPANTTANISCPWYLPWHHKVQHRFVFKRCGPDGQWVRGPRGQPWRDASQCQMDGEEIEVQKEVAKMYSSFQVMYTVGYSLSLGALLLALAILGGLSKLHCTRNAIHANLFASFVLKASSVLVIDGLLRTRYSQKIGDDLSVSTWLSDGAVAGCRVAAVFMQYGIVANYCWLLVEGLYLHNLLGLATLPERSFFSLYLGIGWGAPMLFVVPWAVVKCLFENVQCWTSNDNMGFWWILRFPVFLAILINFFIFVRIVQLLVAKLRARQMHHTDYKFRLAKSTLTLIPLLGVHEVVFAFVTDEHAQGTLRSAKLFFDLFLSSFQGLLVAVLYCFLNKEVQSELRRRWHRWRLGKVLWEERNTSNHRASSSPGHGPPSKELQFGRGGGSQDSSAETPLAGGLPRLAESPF

Binder	EC50 of glucagon receptor (GCGR) (nM); cAMP in CHO-K1 cells [1] [nM]	EC50 of GLP-1 receptor (nM); cAMP (luciferase reporter) in HEK293/CRE-Luc cells (human GLP-1 receptor) [nM]
B1	38.6	0.13
B2	47	2.12
